Publication PMC11667226 (Theranostics, 2025)
Read-outs that look alike come from different tables or passages of the source. Non-standard residues stand in square brackets, D forms with d. Residues, ends and D or L forms follow the SMILES beside them. *: point of attachment. X1 = CC1(C)C(=CC=CC=CC=CC2=[N+](CCCCCC(=O)*)c3ccc4ccccc4c3C2(C)C)N(CCCCS(=O)(=O)[O-])c2ccc3ccccc3c21; Cha = N[C@@H](CC1CCCCC1)C(=O)O

Protocol: ECGs were taken at baseline, 1 hr ± 15 min, and 44 hrs ± 6 h post-injection. Blood samples (including lever and kidney parameters) were sampled at baseline, 12 hrs ± 4 hrs, and 44 hrs ± 6 hrs post-injection. All laboratory analyses were performed by the Department of Biochemistry at Rigshospitalet. AE assessments were graded according to the National Cancer Institute “Common Terminology Criteria for Adverse Events (CTCAE)” version 5.0. There was no data monitoring committee in this trial.
[1] = FG001 36 mg i.v., n = 4, CTCAE v5.0

CC(C)C[C@H](NC(=O)[C@H](Cc1ccc(O)cc1)NC(=O)[C@@H](CCCNC(=N)N)NC(=O)[C@@H](CO)NC(=O)[C@H](Cc1ccccc1)NC(=O)[C@H](CC1CCCCC1)NC(=O)[C@H](CC(=O)O)NC(=O)[C@H](CCC(=O)O)NC(=O)[C@H](CCC(=O)O)NC(=O)CCCCC[N+]1=C(C=CC=CC=CC=C2N(CCCCS(=O)(=O)[O-])c3ccc4ccccc4c3C2(C)C)C(C)(C)c2c1ccc1ccccc21)C(=O)N[C@@H](Cc1c[nH]c2ccccc12)C(=O)N[C@@H](CO)C(=O)O [FG001, ICG-Glu-Glu-AE105] (X1-EED[Cha]F[dS][dR]YLWS-OH; N-terminus and C-terminus assumed)
6: TEAE Hypoalbuminemia, Grade 1: No. events (all doses, Table S1)
1: TEAE Blood creatinine increased: No. events (FG001 36 mg i.v., N=4) | TEAE GGT increased: No. events (FG001 36 mg i.v., N=4) | TEAE Hypalbuminaemia: No. events (FG001 36 mg i.v., N=4) | TEAE Hyperglycaemia: No. events (FG001 36 mg i.v., N=4) | TEAE Hypertension: No. events (FG001 36 mg i.v., N=4) | TEAE SOC Vascular disorders: No. events (FG001 36 mg i.v., N=4) | TEAE ALT increased: No. events (all doses, N=17) | TEAE Blood ALP increased: No. events (all doses, N=17) | TEAE Dysgeusia: No. events (all doses, N=17) | TEAE GGT increased: No. events (all doses, N=17) | TEAE Hyponatraemia: No. events (all doses, N=17) | TEAE Hypotension: No. events (all doses, N=17) | TEAE Pneumonia: No. events (all doses, N=17) | TEAE SOC Infections and infestations: No. events (all doses, N=17) | TEAE SOC Nervous system disorders: No. events (all doses, N=17) | TEAE Alanine aminotransferase increased, Grade 3: No. events (all doses, Table S1) | TEAE Alkaline phosphatase increased, Grade 1: No. events (all doses, Table S1) | TEAE Aspartate aminotransferase increased, Grade 3: No. events (all doses, Table S1) | TEAE Dysgeusia (salty taste), Grade 1: No. events (all doses, Table S1) | TEAE GGT increased, Grade 3: No. events (all doses, Table S1) | TEAE Hyponatremia, Grade 1: No. events (all doses, Table S1) | TEAE Hypotension, Grade 1: No. events (all doses, Table S1) | TEAE Pneumonia, Grade 2: No. events (all doses, Table S1)
7 (41.2%): TEAE Mild (Grade 1): No. patients (%) (all doses, N = 17, CTCAE v5.0) | TEAE Blood bilirubin increased: No. subjects (%) (all doses, N=17)
5: TEAE Blood bilirubin increased, Grade 1: No. events (all doses, Table S1)
16 (94.1%): TEAE: No. patients (%) (all doses, N=17)
4 (100.0%): TEAE Blood bilirubin increased: No. subjects (%) (FG001 36 mg i.v., N=4) | TEAE SOC Investigations: No. subjects (%) (FG001 36 mg i.v., N=4)
2 (50.0%): TEAE Moderate (Grade 2): No. patients (%) [1]
4: TEAE Blood bilirubin increased: No. events (FG001 36 mg i.v., N=4) | TEAE Hypoalbuminemia, Grade 2: No. events (all doses, Table S1)
10 (58.8%): TEAE Hypalbuminaemia: No. subjects (%) (all doses, N=17) | TEAE SOC Metabolism and nutrition disorders: No. subjects (%) (all doses, N=17)
24: TEAE Mild (Grade 1): No. events (all doses, N = 17, CTCAE v5.0)
8 (47.1%): TEAE Moderate (Grade 2): No. patients (%) (all doses, N = 17, CTCAE v5.0)
2 (11.8%): TEAE Blood creatinine increased: No. subjects (%) (all doses, N=17) | TEAE Hyperglycaemia: No. subjects (%) (all doses, N=17) | TEAE Hypertension: No. subjects (%) (all doses, N=17)
13: TEAE SOC Metabolism and nutrition disorders: No. events (all doses, N=17)
7: TEAE Blood bilirubin increased: No. events (all doses, N=17)
No abnormal findings: Findings related to FG001 administration at physical examinations (in vivo)
14: TEAE: No. events (FG001 36 mg i.v., n = 4)
3: TEAE Moderate (Grade 2): No. events [1] | TEAE Severe (Grade 3): No. events [1] | TEAE AST increased: No. events (all doses, N=17) | TEAE Hypothermia: No. events (all doses, N=17) | TEAE SOC General disorders and administration site conditions: No. events (all doses, N=17) | TEAE SOC Vascular disorders: No. events (all doses, N=17) | TEAE Hypothermia, Grade 1: No. events (all doses, Table S1)
0 (0%): FG001 related TEAEs: No. patients (%) (FG001 36 mg i.v., n = 4) | SAEs: No. patients (%) (FG001 36 mg i.v., n = 4) | FG001 related TEAEs: No. patients (%) (all doses, N=17) | SAEs: No. patients (%) (all doses, N=17)
1 (25.0%): TEAE Blood creatinine increased: No. subjects (%) (FG001 36 mg i.v., N=4) | TEAE GGT increased: No. subjects (%) (FG001 36 mg i.v., N=4) | TEAE Hypalbuminaemia: No. subjects (%) (FG001 36 mg i.v., N=4) | TEAE Hyperglycaemia: No. subjects (%) (FG001 36 mg i.v., N=4) | TEAE Hypertension: No. subjects (%) (FG001 36 mg i.v., N=4) | TEAE Hypothermia: No. subjects (%) (FG001 36 mg i.v., N=4) | TEAE SOC General disorders and administration site conditions: No. subjects (%) (FG001 36 mg i.v., N=4) | TEAE SOC Metabolism and nutrition disorders: No. subjects (%) (FG001 36 mg i.v., N=4) | TEAE SOC Vascular disorders: No. subjects (%) (FG001 36 mg i.v., N=4) | TEAE Mild (Grade 1): No. patients (%) [1] | TEAE Severe (Grade 3): No. patients (%) [1]
4 (100%): TEAE: No. patients (%) (FG001 36 mg i.v., n = 4)
2: TEAE Hypothermia: No. events (FG001 36 mg i.v., N=4) | TEAE SOC General disorders and administration site conditions: No. events (FG001 36 mg i.v., N=4) | TEAE SOC Metabolism and nutrition disorders: No. events (FG001 36 mg i.v., N=4) | TEAE Blood creatinine increased: No. events (all doses, N=17) | TEAE Hyperglycaemia: No. events (all doses, N=17) | TEAE Hypertension: No. events (all doses, N=17) | TEAE Aspartate aminotransferase increased, Grade 1: No. events (all doses, Table S1) | TEAE Blood bilirubin increased, Grade 2: No. events (all doses, Table S1) | TEAE Creatinine increased, Grade 1: No. events (all doses, Table S1) | TEAE Hyperglycemia, Grade 1: No. events (all doses, Table S1) | TEAE Hypertension, Grade 2: No. events (all doses, Table S1)
15: TEAE SOC Investigations: No. events (all doses, N=17)
0 (0.0%): TEAE Dysgeusia: No. subjects (%) (FG001 36 mg i.v., N=4) | TEAE Hyponatraemia: No. subjects (%) (FG001 36 mg i.v., N=4) | TEAE Hypotension: No. subjects (%) (FG001 36 mg i.v., N=4) | TEAE Pneumonia: No. subjects (%) (FG001 36 mg i.v., N=4) | TEAE SOC Infections and infestations: No. subjects (%) (FG001 36 mg i.v., N=4) | TEAE SOC Nervous system disorders: No. subjects (%) (FG001 36 mg i.v., N=4)
9: TEAE SOC Investigations: No. events (FG001 36 mg i.v., N=4)
3 (17.6%): TEAE AST increased: No. subjects (%) (all doses, N=17) | TEAE SOC Vascular disorders: No. subjects (%) (all doses, N=17)
9 (52.9%): TEAE SOC Investigations: No. subjects (%) (all doses, N=17)
36: TEAE: No. events (all doses, N=17)
10: TEAE Hypalbuminaemia: No. events (all doses, N=17)
8: TEAE Mild (Grade 1): No. events [1]
1 (5.9%): TEAE Severe (Grade 3): No. patients (%) (all doses, N = 17, CTCAE v5.0) | TEAE ALT increased: No. subjects (%) (all doses, N=17) | TEAE Blood ALP increased: No. subjects (%) (all doses, N=17) | TEAE GGT increased: No. subjects (%) (all doses, N=17) | TEAE Hyponatraemia: No. subjects (%) (all doses, N=17) | TEAE Hypotension: No. subjects (%) (all doses, N=17) | TEAE Pneumonia: No. subjects (%) (all doses, N=17)
0: TEAE Dysgeusia: No. events (FG001 36 mg i.v., N=4) | TEAE Hyponatraemia: No. events (FG001 36 mg i.v., N=4) | TEAE Hypotension: No. events (FG001 36 mg i.v., N=4) | TEAE Pneumonia: No. events (FG001 36 mg i.v., N=4) | TEAE SOC Infections and infestations: No. events (FG001 36 mg i.v., N=4) | TEAE SOC Nervous system disorders: No. events (FG001 36 mg i.v., N=4) | FG001 related TEAEs: No. events (FG001 36 mg i.v., n = 4) | SAEs: No. events (FG001 36 mg i.v., n = 4) | FG001 related TEAEs: No. events (all doses, N=17) | SAEs: No. events (all doses, N=17)
